The series can be described thus: self-splicing fitness, log relative to wild type (ln ratio); higher = more splicing; Tetrahymena group I intron in knt gene, E. coli kanamycin selection, DiMSum; sequences stand for … in CUCUCU…GGAGGGAAAAGUUAUCAGGCAUGCACCUGGUAGCUAGUCUUUAAACCAAUAGAUUGCAUCGGUUUAAAAGGCAAGACCGUCAAAUUGCGGGAAAGGGGUCAACAGCCGUUCAGUACCAAGUCUCAGGGGAAACUUUGAGAUGGCCUUGCAAAGGGUAUGGUAAUAAGCUGACGGACAUGGUCCUAACCACGCAGCCAAGUCCUAAGUCAACAGAUCUUCUGUUGAUAUGGAUGCAGUUCACAGACUAAAUGUCGGUCGGGGAAGAUGUAUUCUUCUCAUAAGAUAUAGUCGGACCUCUCCUUAAUGGGAGCUAGCGGAUGAAGUGAUGCAACACUGGAGCCGCUGGGAACUAAUUUGUAUGCGAAAGUAUAUUGAUUAGUUUUGGAGUACUCGUGGUCG
In outline:
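Colonies from six replicate transformations of E. coli BL21(DE3) were pooled and amplicon-sequenced on an Illumina HiSeq 2500. The library placed an intron with all eight P1ex-region nucleotides randomised inside the knt kanamycin-resistance gene on pET-22b(+), and cells grew overnight at 37°C or 30°C on LB agar with or without 25 μg/mL kanamycin (plus 100 μg/mL carbenicillin, 50 μM IPTG, 0.2% rhamnose). Fitness is the DiMSum error-weighted combination of wild-type-normalised replicate fold changes, kanamycin versus none.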

± gives the uncertainty stated by the source.

Turning to UACAAGCAAUAUUACGCCCA, the “self-splicing fitness (ln)” value worked out at 0.292 ± 0.11 (30 °C) and 0.261 ± 0.13 (37 °C). UACAAGCAAUAUUACGCGGU: the “self-splicing fitness (ln)” value is -3.61 ± 0.16 (30 °C) and -2.61 ± 0.18 (37 °C).

For UACAAGCAAUAUUACGCUGC, the “self-splicing fitness (ln)” value by setting is: (30 °C) -2.03 ± 0.19; (37 °C) -0.919 ± 0.32. For the sequence UACAAGCAAUAUUACGCUGU, the “self-splicing fitness (ln)” value (37 °C) is -1.65 ± 0.28. With UACAAGCAAUAUUACGCUUA, the “self-splicing fitness (ln)” value is -2.33 ± 0.11 (30 °C) and -1.18 ± 0.08 (37 °C). Regarding UACAAGCAAUAUUACGCUUC, the “self-splicing fitness (ln)” value was -4.25 ± 0.42 (30 °C) and -3.02 ± 0.25 (37 °C). Taken in the same sequence, the figures for UACAAGCAAUAUUACGGAUA were -1.38 ± 0.086 and -0.839 ± 0.092. Taken in the same sequence, the figures for UACAAGCAAUAUUACGGCUA were -0.336 ± 0.06 and 0.201 ± 0.088.

As to UACAAGCAAUAUUACGGCUG, the “self-splicing fitness (ln)” value (30 °C) is -0.22 ± 0.1 and the “self-splicing fitness (ln)” value (37 °C) was 0.307 ± 0.16. As to UACAAGCAAUAUUACGGUGG, the “self-splicing fitness (ln)” value by setting is: (30 °C) -1.65 ± 0.051; (37 °C) -1.25 ± 0.064. Taken in the same sequence, the figures for UACAAGCAAUAUUACGUACA were -1.56 ± 0.084 and -0.15 ± 0.086. Taken in the same sequence, the figures for UACAAGCAAUAUUACGUACG were -3.9 ± 0.22 and -1.3 ± 0.13. For UACAAGCAAUAUUACGUGCA, in that order: -0.352 ± 0.083 and -0.366 ± 0.1. For the sequence UACAAGCAAUAUUACGUGCG, the “self-splicing fitness (ln)” value reads like this: (30 °C) -1.05 ± 0.054; (37 °C) -0.158 ± 0.075. Taken in the same sequence, the figures for UACAAGCAAUAUUACGUGCU were -3.34 ± 0.16 and -2.22 ± 0.13. As for UACAAGCAAUAUUACGUGGG, the “self-splicing fitness (ln)” value (30 °C) was -3.82 ± 0.21 and the “self-splicing fitness (ln)” value (37 °C) was -3.3 ± 0.24. Turning to UACAAGCAAUAUUACGUGGU, the “self-splicing fitness (ln)” value was -3.29 ± 0.14 (30 °C) and -3.27 ± 0.17 (37 °C). For UACCAGCAAUAUUACGAAUU, in that order: -2.55 ± 0.17 and -1.96 ± 0.2. For UACCAGCAAUAUUACGACUA, in that order: -0.413 ± 0.078 and 0.638 ± 0.098.

Turning to UACCAGCAAUAUUACGCCUG, the “self-splicing fitness (ln)” value by setting is: (30 °C) -1.3 ± 0.14; (37 °C) -1.21 ± 0.19. Taken in the same sequence, the figures for UACCAGCAAUAUUACGCGAA were -0.474 ± 0.063 and -0.386 ± 0.086. For UACCAGCAAUAUUACGCGUG, in that order: 0.016 ± 0.081 and 0.0464 ± 0.099.

As to UACCAGCAAUAUUACGCUGA, the “self-splicing fitness (ln)” value reads like this: (30 °C) -2.43 ± 0.15; (37 °C) -1.21 ± 0.11. Taken in the same sequence, the figures for UACCAGCAAUAUUACGGAAG were -3.5 ± 0.24 and -1.57 ± 0.16. Take UACCAGCAAUAUUACGGCCC: the “self-splicing fitness (ln)” value was -1.19 ± 0.14 (30 °C) and -0.219 ± 0.26 (37 °C). Take UACCAGCAAUAUUACGGGGG: the “self-splicing fitness (ln)” value reads like this: (30 °C) -2.5 ± 0.14; (37 °C) -1.77 ± 0.13.

Regarding UACCAGCAAUAUUACGGUCC, the “self-splicing fitness (ln)” value (30 °C) was -1.55 ± 0.11 and the “self-splicing fitness (ln)” value (37 °C) was -0.0163 ± 0.11.

Regarding UACCAGCAAUAUUACGUAGC, the “self-splicing fitness (ln)” value (30 °C) was -2.38 ± 0.11 and the “self-splicing fitness (ln)” value (37 °C) is -1.72 ± 0.14. Taken in the same sequence, the figures for UACCAGCAAUAUUACGUAUC were -2.55 ± 0.15 and -0.118 ± 0.12. For UACCAGCAAUAUUACGUCCU, in that order: -1.79 ± 0.1 and -1.34 ± 0.14. Take UACCAGCAAUAUUACGUCGA: the “self-splicing fitness (ln)” value was -0.651 ± 0.073 (30 °C) and -0.0658 ± 0.085 (37 °C).

Turning to UACCAGCAAUAUUACGUCGG, the “self-splicing fitness (ln)” value (30 °C) is -2.64 ± 0.12 and the “self-splicing fitness (ln)” value (37 °C) is -1.91 ± 0.14.

For the sequence UACCAGCAAUAUUACGUGGC, the “self-splicing fitness (ln)” value is, setting by setting: (30 °C) -4.31 ± 0.22; (37 °C) -3.66 ± 0.2. For UACCAGCAAUAUUACGUGUC, in that order: -2.04 ± 0.1 and -2.23 ± 0.15. Taken in the same sequence, the figures for UACCAGCAAUAUUACGUGUU were -3.72 ± 0.11 and -1.38 ± 0.078. Taken in the same sequence, the figures for UACCAGCAAUAUUACGUUCC were -2.79 ± 0.19 and -1.77 ± 0.22. With UACCAGCAAUAUUACGUUUA, the “self-splicing fitness (ln)” value is, setting by setting: (30 °C) -0.529 ± 0.052; (37 °C) -0.264 ± 0.064.

Take UACGAGCAAUAUUACGACCU: the “self-splicing fitness (ln)” value is, setting by setting: (30 °C) -2.35 ± 0.27; (37 °C) -1.82 ± 0.5.

For the sequence UACGAGCAAUAUUACGAGUG, the “self-splicing fitness (ln)” value was -1.86 ± 0.07 (30 °C) and -1.74 ± 0.1 (37 °C). For UACGAGCAAUAUUACGCACU, the “self-splicing fitness (ln)” value by setting is: (30 °C) -2.42 ± 0.29; (37 °C) -2.13 ± 0.28. Regarding UACGAGCAAUAUUACGCGUG, the “self-splicing fitness (ln)” value was -4.43 ± 0.3 (30 °C) and -2.7 ± 0.21 (37 °C).

As to UACGAGCAAUAUUACGCUAG, the “self-splicing fitness (ln)” value (37 °C) was -1.7 ± 0.46.

Regarding UACGAGCAAUAUUACGGAAU, the “self-splicing fitness (ln)” value is, setting by setting: (30 °C) -2.71 ± 0.27; (37 °C) -2.76 ± 0.34. For UACGAGCAAUAUUACGGCCU, in that order: -3.35 ± 0.18 and -3.77 ± 0.46. For the sequence UACGAGCAAUAUUACGGCGC, the “self-splicing fitness (ln)” value was -2.53 ± 0.29 (30 °C) and -2.4 ± 0.46 (37 °C). For UACGAGCAAUAUUACGGGGA, in that order: -2.87 ± 0.29 and -1.69 ± 0.19.

Turning to UACGAGCAAUAUUACGGGGC, for the setting “37 °C”, the “self-splicing fitness (ln)” value was -3.34 ± 0.3. As for UACGAGCAAUAUUACGGUAC, the “self-splicing fitness (ln)” value runs as follows: (30 °C) -3.89 ± 0.3; (37 °C) -2.76 ± 0.34. As to UACGAGCAAUAUUACGGUCU, the “self-splicing fitness (ln)” value was -4.06 ± 0.34 (30 °C) and -3.1 ± 0.4 (37 °C). For UACGAGCAAUAUUACGGUUC, in that order: -4.18 ± 0.19 and -2.5 ± 0.15. For UACGAGCAAUAUUACGUACG, the “self-splicing fitness (ln)” value (30 °C) was -3.76 ± 0.23 and the “self-splicing fitness (ln)” value (37 °C) was -2.34 ± 0.18. In the case of UACGAGCAAUAUUACGUAGG, the “self-splicing fitness (ln)” value is -3.41 ± 0.31 (30 °C) and -2.57 ± 0.28 (37 °C). With UACGAGCAAUAUUACGUAUA, the “self-splicing fitness (ln)” value reads like this: (30 °C) -2.7 ± 0.2; (37 °C) -0.839 ± 0.14. For the sequence UACGAGCAAUAUUACGUCGU, the “self-splicing fitness (ln)” value (30 °C) is -4.08 ± 0.33. UACGAGCAAUAUUACGUGAC: the “self-splicing fitness (ln)” value is, setting by setting: (30 °C) -4.06 ± 0.33; (37 °C) -1.76 ± 0.27.

For the sequence UACGAGCAAUAUUACGUGUU, the “self-splicing fitness (ln)” value by setting is: (30 °C) -3.63 ± 0.19; (37 °C) -3.63 ± 0.29. UACGAGCAAUAUUACGUUUA: the “self-splicing fitness (ln)” value (30 °C) is -2.32 ± 0.12 and the “self-splicing fitness (ln)” value (37 °C) is -1.79 ± 0.12.

UACUAGCAAUAUUACGAACA: the “self-splicing fitness (ln)” value runs as follows: (30 °C) -0.0493 ± 0.19; (37 °C) -0.55 ± 0.15. For the sequence UACUAGCAAUAUUACGACAC, the “self-splicing fitness (ln)” value reads like this: (30 °C) -2.53 ± 0.2; (37 °C) -0.604 ± 0.15. In the case of UACUAGCAAUAUUACGAGAC, the “self-splicing fitness (ln)” value (37 °C) was -1.56 ± 0.25. As for UACUAGCAAUAUUACGAGGG, the “self-splicing fitness (ln)” value is, setting by setting: (30 °C) -2.3 ± 0.13; (37 °C) -2.52 ± 0.17. For UACUAGCAAUAUUACGAUAU, in that order: -3.18 ± 0.17 and -2.36 ± 0.17. Taken in the same sequence, the figures for UACUAGCAAUAUUACGAUGA were -0.469 ± 0.13 and -0.321 ± 0.11. Taken in the same sequence, the figures for UACUAGCAAUAUUACGAUGG were -0.657 ± 0.12 and -0.406 ± 0.2.

Regarding UACUAGCAAUAUUACGCAAU, the “self-splicing fitness (ln)” value is -3.82 ± 0.23 (30 °C) and -1.63 ± 0.16 (37 °C). With UACUAGCAAUAUUACGCAGU, the “self-splicing fitness (ln)” value by setting is: (30 °C) -3.26 ± 0.35; (37 °C) -3.09 ± 0.34. For UACUAGCAAUAUUACGCCCA, in that order: -0.901 ± 0.21 and 0.802 ± 0.33. Taken in the same sequence, the figures for UACUAGCAAUAUUACGCCCC were -2.19 ± 0.41 and -1.18 ± 0.43. On to UACUAGCAAUAUUACGGAGU, for which the “self-splicing fitness (ln)” value was -3.43 ± 0.24 (30 °C) and -3.25 ± 0.29 (37 °C). For UACUAGCAAUAUUACGGCAU, in that order: -1.36 ± 0.095 and -1.28 ± 0.099.

As for UACUAGCAAUAUUACGGCGG, the “self-splicing fitness (ln)” value was -0.694 ± 0.11 (30 °C) and 0.0905 ± 0.13 (37 °C). Take UACUAGCAAUAUUACGGCGU: the “self-splicing fitness (ln)” value was -2.16 ± 0.11 (30 °C) and -0.707 ± 0.12 (37 °C). As to UACUAGCAAUAUUACGGCUA, the “self-splicing fitness (ln)” value (30 °C) was -1.58 ± 0.12 and the “self-splicing fitness (ln)” value (37 °C) is -0.671 ± 0.099. Turning to UACUAGCAAUAUUACGGGAU, the “self-splicing fitness (ln)” value is -3.17 ± 0.17 (30 °C) and -1.43 ± 0.13 (37 °C). As to UACUAGCAAUAUUACGGGUC, the “self-splicing fitness (ln)” value runs as follows: (30 °C) -2.68 ± 0.21; (37 °C) -2.29 ± 0.26. Consider UACUAGCAAUAUUACGGGUG, for which the “self-splicing fitness (ln)” value is -0.974 ± 0.077 (30 °C) and -0.232 ± 0.075 (37 °C).

The record behind these values is the supplement of paper PMC7877785.
